According to article PMC9482650, “Quantitative fragmentomics allow affinity mapping of interactomes” (Nature Communications, 2022):

Biological target: AHNAK1, Q09666
Test: holdup assay
Parameters: key: below the threshold = too weak to quantify, mostly under pKd 3.1 to 4
Conditions: plain residues with an end cap or a label only (N-terminal biotin on a linker: ado-ado)

Sequence of AHNAK1, Q09666 (Q09666 4-100): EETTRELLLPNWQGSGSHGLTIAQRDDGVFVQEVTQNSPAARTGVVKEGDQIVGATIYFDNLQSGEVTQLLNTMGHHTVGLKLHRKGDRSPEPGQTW

pKd	Binder
below the threshold	YYKRPVQEWV [MMP24, Q9Y5R2]
below the threshold	LPHGHSTTRV [NLGN4X, Q8N0W4]

Biological target: T1, APBA1_1, Q02410
T1 sequence (Q02410 651-752, limits assumed, looked up): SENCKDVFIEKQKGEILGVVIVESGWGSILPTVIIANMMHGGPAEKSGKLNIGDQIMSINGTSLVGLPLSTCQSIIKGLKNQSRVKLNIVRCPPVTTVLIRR
Test: holdup assay
Parameters: key: below the threshold = too weak to quantify, mostly under pKd 3.1 to 4
Conditions: plain residues with an end cap or a label only (N-terminal biotin on a linker: ado-ado)

pKd	Binder
3.48	YYKRPVQEWV [MMP24, Q9Y5R2]
below the threshold	LPHGHSTTRV [NLGN4X, Q8N0W4]

Biological target: T2, APBA1_2, Q02410
T2 sequence (Q02410 742-832, limits assumed, looked up): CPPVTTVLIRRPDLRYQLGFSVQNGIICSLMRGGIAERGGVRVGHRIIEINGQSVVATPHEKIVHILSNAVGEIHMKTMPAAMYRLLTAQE
Test: holdup assay
Parameters: key: below the threshold = too weak to quantify, mostly under pKd 3.1 to 4
Conditions: plain residues with an end cap or a label only (N-terminal biotin on a linker: ado-ado)

pKd	Binder
5.02	YYKRPVQEWV [MMP24, Q9Y5R2]
3.54	LPHGHSTTRV [NLGN4X, Q8N0W4]

Biological target: T3, DLG3_1, Q92796
T3 sequence (Q92796 125-227, limits assumed, looked up): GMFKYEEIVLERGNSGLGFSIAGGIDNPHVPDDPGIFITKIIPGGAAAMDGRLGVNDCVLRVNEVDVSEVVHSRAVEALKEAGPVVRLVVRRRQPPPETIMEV
Test: holdup assay
Parameters: key: below the threshold = too weak to quantify, mostly under pKd 3.1 to 4
Conditions: plain residues with an end cap or a label only (N-terminal biotin on a linker: ado-ado)

pKd	Binder
below the threshold	YYKRPVQEWV [MMP24, Q9Y5R2]
below the threshold	LPHGHSTTRV [NLGN4X, Q8N0W4]

Biological target: T4, DLG3_3, Q92796
T4 sequence (Q92796 374-475, limits assumed, looked up): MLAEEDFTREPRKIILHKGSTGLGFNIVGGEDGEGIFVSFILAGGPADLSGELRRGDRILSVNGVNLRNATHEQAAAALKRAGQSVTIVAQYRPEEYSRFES
Test: holdup assay
Parameters: key: below the threshold = too weak to quantify, mostly under pKd 3.1 to 4
Conditions: plain residues with an end cap or a label only (N-terminal biotin on a linker: ado-ado)

pKd	Binder
below the threshold	YYKRPVQEWV [MMP24, Q9Y5R2]
4.27	LPHGHSTTRV [NLGN4X, Q8N0W4]

Biological target: DLG4_1, P78352
Sequence (P78352 62-152): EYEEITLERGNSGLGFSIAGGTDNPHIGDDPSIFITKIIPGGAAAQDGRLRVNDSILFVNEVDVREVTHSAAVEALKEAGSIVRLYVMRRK
Test: holdup assay
Parameters: key: below the threshold = too weak to quantify, mostly under pKd 3.1 to 4
Conditions: plain residues with an end cap or a label only (N-terminal biotin on a linker: ado-ado)

pKd	Binder
below the threshold	YYKRPVQEWV [MMP24, Q9Y5R2]
3.51	LPHGHSTTRV [NLGN4X, Q8N0W4]

Biological target: FRMPD2_3, Q68DX3
Sequence (Q68DX3 1073-1166): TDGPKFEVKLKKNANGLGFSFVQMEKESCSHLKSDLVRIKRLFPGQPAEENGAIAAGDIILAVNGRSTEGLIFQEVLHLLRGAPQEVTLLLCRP
Test: holdup assay
Parameters: key: below the threshold = too weak to quantify, mostly under pKd 3.1 to 4
Conditions: plain residues with an end cap or a label only (N-terminal biotin on a linker: ado-ado)

pKd	Binder
3.52	YYKRPVQEWV [MMP24, Q9Y5R2]
below the threshold	LPHGHSTTRV [NLGN4X, Q8N0W4]

Biological target: GRID2IP_2, A4D2P6
Sequence (A4D2P6 272-370): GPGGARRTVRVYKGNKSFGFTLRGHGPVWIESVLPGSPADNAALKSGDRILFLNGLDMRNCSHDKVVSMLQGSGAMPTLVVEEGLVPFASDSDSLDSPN
Test: holdup assay
Parameters: key: below the threshold = too weak to quantify, mostly under pKd 3.1 to 4
Conditions: plain residues with an end cap or a label only (N-terminal biotin on a linker: ado-ado)

pKd	Binder
3.89	YYKRPVQEWV [MMP24, Q9Y5R2]
3.84	LPHGHSTTRV [NLGN4X, Q8N0W4]

Biological target: T5, GRIP1_3, Q9Y3R0
T5 sequence (Q9Y3R0 247-346, limits assumed, looked up): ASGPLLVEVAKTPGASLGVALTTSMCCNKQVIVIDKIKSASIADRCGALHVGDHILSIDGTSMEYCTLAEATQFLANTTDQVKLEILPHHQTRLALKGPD
Test: holdup assay
Parameters: key: below the threshold = too weak to quantify, mostly under pKd 3.1 to 4
Conditions: plain residues with an end cap or a label only (N-terminal biotin on a linker: ado-ado)

pKd	Binder
below the threshold	YYKRPVQEWV [MMP24, Q9Y5R2]
below the threshold	LPHGHSTTRV [NLGN4X, Q8N0W4]

Biological target: T6, GRIP1_5, Q9Y3R0
T6 sequence (Q9Y3R0 568-668, limits assumed, looked up): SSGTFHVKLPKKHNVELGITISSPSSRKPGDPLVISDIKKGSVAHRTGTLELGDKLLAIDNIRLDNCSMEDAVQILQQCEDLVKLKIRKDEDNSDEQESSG
Test: holdup assay
Parameters: key: below the threshold = too weak to quantify, mostly under pKd 3.1 to 4
Conditions: plain residues with an end cap or a label only (N-terminal biotin on a linker: ado-ado)

pKd	Binder
below the threshold	YYKRPVQEWV [MMP24, Q9Y5R2]
below the threshold	LPHGHSTTRV [NLGN4X, Q8N0W4]

Biological target: GRIP2_4, Q9C0E4
Sequence (Q9C0E4 446-548): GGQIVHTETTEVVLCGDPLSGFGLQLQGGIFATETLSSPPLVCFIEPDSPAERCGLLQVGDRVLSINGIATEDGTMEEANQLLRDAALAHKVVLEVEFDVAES
Test: holdup assay
Parameters: key: below the threshold = too weak to quantify, mostly under pKd 3.1 to 4
Conditions: plain residues with an end cap or a label only (N-terminal biotin on a linker: ado-ado)

pKd	Binder
below the threshold	YYKRPVQEWV [MMP24, Q9Y5R2]
below the threshold	LPHGHSTTRV [NLGN4X, Q8N0W4]

Biological target: GRIP2_5, Q9C0E4
Sequence (Q9C0E4 544-642): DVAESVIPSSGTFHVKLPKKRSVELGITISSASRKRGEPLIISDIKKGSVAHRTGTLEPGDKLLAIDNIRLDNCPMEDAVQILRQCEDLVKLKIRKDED
Test: holdup assay
Parameters: key: below the threshold = too weak to quantify, mostly under pKd 3.1 to 4
Conditions: plain residues with an end cap or a label only (N-terminal biotin on a linker: ado-ado)

pKd	Binder
below the threshold	YYKRPVQEWV [MMP24, Q9Y5R2]
below the threshold	LPHGHSTTRV [NLGN4X, Q8N0W4]

Biological target: HTRA1, Q92743
Sequence (Q92743 360-477): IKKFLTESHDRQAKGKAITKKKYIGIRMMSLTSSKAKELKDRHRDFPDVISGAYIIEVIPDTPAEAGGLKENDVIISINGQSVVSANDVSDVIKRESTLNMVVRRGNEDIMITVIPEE
Test: holdup assay
Parameters: key: below the threshold = too weak to quantify, mostly under pKd 3.1 to 4
Conditions: plain residues with an end cap or a label only (N-terminal biotin on a linker: ado-ado)

pKd	Binder
4.5	YYKRPVQEWV [MMP24, Q9Y5R2]
3.72	LPHGHSTTRV [NLGN4X, Q8N0W4]

Biological target: IL16_3, Q14005
Sequence (Q14005 1107-1207): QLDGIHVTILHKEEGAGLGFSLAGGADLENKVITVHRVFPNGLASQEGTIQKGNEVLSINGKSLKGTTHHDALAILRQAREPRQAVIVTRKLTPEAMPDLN
Test: holdup assay
Parameters: key: below the threshold = too weak to quantify, mostly under pKd 3.1 to 4
Conditions: plain residues with an end cap or a label only (N-terminal biotin on a linker: ado-ado)

pKd	Binder
below the threshold	YYKRPVQEWV [MMP24, Q9Y5R2]
below the threshold	LPHGHSTTRV [NLGN4X, Q8N0W4]

Biological target: Inadl_8, Q8NI35
Sequence (Q8NI35 1425-1530): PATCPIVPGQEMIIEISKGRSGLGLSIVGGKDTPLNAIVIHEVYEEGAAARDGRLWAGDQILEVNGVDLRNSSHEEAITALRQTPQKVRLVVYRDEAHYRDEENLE
Test: holdup assay
Parameters: key: below the threshold = too weak to quantify, mostly under pKd 3.1 to 4
Conditions: plain residues with an end cap or a label only (N-terminal biotin on a linker: ado-ado)

pKd	Binder
3.69	YYKRPVQEWV [MMP24, Q9Y5R2]
4.33	LPHGHSTTRV [NLGN4X, Q8N0W4]

Biological target: T7, LNX2_2, Q8N448
T7 sequence (Q8N448 334-432, limits assumed, looked up): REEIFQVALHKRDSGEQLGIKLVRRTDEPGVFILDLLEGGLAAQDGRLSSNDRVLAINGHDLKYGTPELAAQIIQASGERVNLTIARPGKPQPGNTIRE
Test: holdup assay
Parameters: key: below the threshold = too weak to quantify, mostly under pKd 3.1 to 4
Conditions: plain residues with an end cap or a label only (N-terminal biotin on a linker: ado-ado)

pKd	Binder
4.86	YYKRPVQEWV [MMP24, Q9Y5R2]
3.8	LPHGHSTTRV [NLGN4X, Q8N0W4]

Biological target: MAGI1_1, Q96QZ7
Sequence (Q96QZ7 1-106): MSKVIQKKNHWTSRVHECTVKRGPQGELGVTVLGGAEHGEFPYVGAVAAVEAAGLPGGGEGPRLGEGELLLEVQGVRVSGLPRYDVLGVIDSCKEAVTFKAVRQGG
Test: holdup assay
Parameters: key: below the threshold = too weak to quantify, mostly under pKd 3.1 to 4
Conditions: plain residues with an end cap or a label only (N-terminal biotin on a linker: ado-ado)

pKd	Binder
3.48	YYKRPVQEWV [MMP24, Q9Y5R2]
below the threshold	LPHGHSTTRV [NLGN4X, Q8N0W4]

Biological target: T8, MPP2, Q14168
T8 sequence (Q14168 180-250, limits assumed, looked up): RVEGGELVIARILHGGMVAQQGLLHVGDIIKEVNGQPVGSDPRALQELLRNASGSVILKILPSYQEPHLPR
Test: holdup assay
Parameters: key: below the threshold = too weak to quantify, mostly under pKd 3.1 to 4
Conditions: plain residues with an end cap or a label only (N-terminal biotin on a linker: ado-ado)

pKd	Binder
below the threshold	YYKRPVQEWV [MMP24, Q9Y5R2]
below the threshold	LPHGHSTTRV [NLGN4X, Q8N0W4]

Biological target: T9, NHERF3_1, Q5T2W1
T9 sequence (Q5T2W1 4-100, limits assumed, looked up): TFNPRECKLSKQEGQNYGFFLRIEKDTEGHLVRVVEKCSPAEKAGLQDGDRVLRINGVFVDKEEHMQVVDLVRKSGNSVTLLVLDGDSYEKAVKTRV
Test: holdup assay
Parameters: key: below the threshold = too weak to quantify, mostly under pKd 3.1 to 4
Conditions: plain residues with an end cap or a label only (N-terminal biotin on a linker: ado-ado)

pKd	Binder
4.24	YYKRPVQEWV [MMP24, Q9Y5R2]
3.88	LPHGHSTTRV [NLGN4X, Q8N0W4]

Biological target: NOS1, P29475
Sequence (P29475 9-101): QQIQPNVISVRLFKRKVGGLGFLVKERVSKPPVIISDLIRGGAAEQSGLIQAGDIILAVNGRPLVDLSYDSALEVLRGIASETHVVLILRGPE
Test: holdup assay
Parameters: key: below the threshold = too weak to quantify, mostly under pKd 3.1 to 4
Conditions: plain residues with an end cap or a label only (N-terminal biotin on a linker: ado-ado)

pKd	Binder
4.39	YYKRPVQEWV [MMP24, Q9Y5R2]
3.76	LPHGHSTTRV [NLGN4X, Q8N0W4]

Biological target: PDLIM1, O00151
Sequence (O00151 1-87): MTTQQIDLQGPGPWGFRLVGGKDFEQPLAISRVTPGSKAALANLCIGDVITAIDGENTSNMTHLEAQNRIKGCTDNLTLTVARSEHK
Test: holdup assay
Parameters: key: below the threshold = too weak to quantify, mostly under pKd 3.1 to 4
Conditions: plain residues with an end cap or a label only (N-terminal biotin on a linker: ado-ado)

pKd	Binder
below the threshold	YYKRPVQEWV [MMP24, Q9Y5R2]
below the threshold	LPHGHSTTRV [NLGN4X, Q8N0W4]

Biological target: PICK1, Q9NRD5
Sequence (Q9NRD5 17-115): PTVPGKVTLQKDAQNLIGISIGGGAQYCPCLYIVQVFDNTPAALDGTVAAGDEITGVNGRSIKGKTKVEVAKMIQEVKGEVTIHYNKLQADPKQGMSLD
Test: holdup assay
Parameters: key: below the threshold = too weak to quantify, mostly under pKd 3.1 to 4
Conditions: plain residues with an end cap or a label only (N-terminal biotin on a linker: ado-ado)

pKd	Binder
below the threshold	YYKRPVQEWV [MMP24, Q9Y5R2]
4.27	LPHGHSTTRV [NLGN4X, Q8N0W4]

Biological target: T10, RHPN1, Q8TCX5
T10 sequence (Q8TCX5 508-602, limits assumed, looked up): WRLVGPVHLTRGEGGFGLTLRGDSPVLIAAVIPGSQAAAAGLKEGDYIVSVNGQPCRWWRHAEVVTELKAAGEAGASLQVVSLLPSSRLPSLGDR
Test: holdup assay
Parameters: key: below the threshold = too weak to quantify, mostly under pKd 3.1 to 4
Conditions: plain residues with an end cap or a label only (N-terminal biotin on a linker: ado-ado)

pKd	Binder
below the threshold	YYKRPVQEWV [MMP24, Q9Y5R2]
4.04	LPHGHSTTRV [NLGN4X, Q8N0W4]

Biological target: SNX27, Q96L92
Test: holdup assay
Parameters: key: below the threshold = too weak to quantify, mostly under pKd 3.1 to 4
Conditions: plain residues with an end cap or a label only (N-terminal biotin on a linker: ado-ado)

pKd	Binder
4.2	YYKRPVQEWV [MMP24, Q9Y5R2]
5.18	LPHGHSTTRV [NLGN4X, Q8N0W4]

Biological target: T11, SYNJ2BP, P57105
T11 sequence (P57105 8-110, limits assumed, looked up): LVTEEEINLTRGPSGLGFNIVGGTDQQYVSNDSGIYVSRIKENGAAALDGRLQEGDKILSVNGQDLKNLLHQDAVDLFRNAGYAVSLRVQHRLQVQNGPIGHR
Test: holdup assay
Parameters: key: below the threshold = too weak to quantify, mostly under pKd 3.1 to 4
Conditions: plain residues with an end cap or a label only (N-terminal biotin on a linker: ado-ado)

pKd	Binder
3.91	YYKRPVQEWV [MMP24, Q9Y5R2]
3.9	LPHGHSTTRV [NLGN4X, Q8N0W4]

Biological target: T12, TIAM2, Q8IVF5
T12 sequence (Q8IVF5 885-986, limits assumed, looked up): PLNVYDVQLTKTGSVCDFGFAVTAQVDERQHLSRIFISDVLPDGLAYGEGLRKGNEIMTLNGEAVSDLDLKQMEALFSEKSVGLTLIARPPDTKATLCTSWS
Test: holdup assay
Parameters: key: below the threshold = too weak to quantify, mostly under pKd 3.1 to 4
Conditions: plain residues with an end cap or a label only (N-terminal biotin on a linker: ado-ado)

pKd	Binder
4.08	YYKRPVQEWV [MMP24, Q9Y5R2]
below the threshold	LPHGHSTTRV [NLGN4X, Q8N0W4]
